First the molecules themselves.
B1: …(N-Me-G)TGDED (peptide)
peptide: Ac-EDDSDVWWYG[Sar]TGDED-NH2
SMILES: CC(=O)N[C@@H](CCC(=O)O)C(=O)N[C@@H](CC(=O)O)C(=O)N[C@@H](CC(=O)O)C(=O)N[C@@H](CO)C(=O)N[C@@H](CC(=O)O)C(=O)N[C@H](C(=O)N[C@@H](Cc1c[nH]c2ccccc12)C(=O)N[C@@H](Cc1c[nH]c2ccccc12)C(=O)N[C@@H](Cc1ccc(O)cc1)C(=O)NCC(=O)N(C)CC(=O)N[C@H](C(=O)NCC(=O)N[C@@H](CC(=O)O)C(=O)N[C@@H](CCC(=O)O)C(=O)N[C@@H](CC(=O)O)C(N)=O)[C@@H](C)O)C(C)C
B2: …(N-Me-G)TGDED (peptide)
peptide: Ac-EDDSDVWWY[Sar]TGDED-NH2
SMILES: CC(=O)N[C@@H](CCC(=O)O)C(=O)N[C@@H](CC(=O)O)C(=O)N[C@@H](CC(=O)O)C(=O)N[C@@H](CO)C(=O)N[C@@H](CC(=O)O)C(=O)N[C@H](C(=O)N[C@@H](Cc1c[nH]c2ccccc12)C(=O)N[C@@H](Cc1c[nH]c2ccccc12)C(=O)N[C@@H](Cc1ccc(O)cc1)C(=O)N(C)CC(=O)N[C@H](C(=O)NCC(=O)N[C@@H](CC(=O)O)C(=O)N[C@@H](CCC(=O)O)C(=O)N[C@@H](CC(=O)O)C(N)=O)[C@@H](C)O)C(C)C
B3: …(N-Me-G)ADTD (peptide)
peptide: Ac-EDDSDVWWY[Sar]ADTD-NH2
SMILES: CC(=O)N[C@@H](CCC(=O)O)C(=O)N[C@@H](CC(=O)O)C(=O)N[C@@H](CC(=O)O)C(=O)N[C@@H](CO)C(=O)N[C@@H](CC(=O)O)C(=O)N[C@H](C(=O)N[C@@H](Cc1c[nH]c2ccccc12)C(=O)N[C@@H](Cc1c[nH]c2ccccc12)C(=O)N[C@@H](Cc1ccc(O)cc1)C(=O)N(C)CC(=O)N[C@@H](C)C(=O)N[C@@H](CC(=O)O)C(=O)N[C@H](C(=O)N[C@@H](CC(=O)O)C(N)=O)[C@@H](C)O)C(C)C
B4: …(N-Me-G)ADTD (peptide)
peptide: Ac-EDDSDVWWYG[Sar]ADTD-NH2
SMILES: CC(=O)N[C@@H](CCC(=O)O)C(=O)N[C@@H](CC(=O)O)C(=O)N[C@@H](CC(=O)O)C(=O)N[C@@H](CO)C(=O)N[C@@H](CC(=O)O)C(=O)N[C@H](C(=O)N[C@@H](Cc1c[nH]c2ccccc12)C(=O)N[C@@H](Cc1c[nH]c2ccccc12)C(=O)N[C@@H](Cc1ccc(O)cc1)C(=O)NCC(=O)N(C)CC(=O)N[C@@H](C)C(=O)N[C@@H](CC(=O)O)C(=O)N[C@H](C(=O)N[C@@H](CC(=O)O)C(N)=O)[C@@H](C)O)C(C)C
B5: R4-21 (peptide)
peptide: Ac-RRRREDDD[2Nal]IDWGPTSDDD-NH2
SMILES: CC[C@H](C)[C@H](NC(=O)[C@H](Cc1ccc2ccccc2c1)NC(=O)[C@H](CC(=O)O)NC(=O)[C@H](CC(=O)O)NC(=O)[C@H](CC(=O)O)NC(=O)[C@H](CCC(=O)O)NC(=O)[C@H](CCCNC(=N)N)NC(=O)[C@H](CCCNC(=N)N)NC(=O)[C@H](CCCNC(=N)N)NC(=O)[C@H](CCCNC(=N)N)NC(C)=O)C(=O)N[C@@H](CC(=O)O)C(=O)N[C@@H](Cc1c[nH]c2ccccc12)C(=O)NCC(=O)N1CCC[C@H]1C(=O)N[C@H](C(=O)N[C@@H](CO)C(=O)N[C@@H](CC(=O)O)C(=O)N[C@@H](CC(=O)O)C(=O)N[C@@H](CC(=O)O)C(N)=O)[C@@H](C)O
B6: R4-20 (peptide)
peptide: Ac-RRRREDDD[2Nal]IDWYDSDDD-NH2
SMILES: CC[C@H](C)[C@H](NC(=O)[C@H](Cc1ccc2ccccc2c1)NC(=O)[C@H](CC(=O)O)NC(=O)[C@H](CC(=O)O)NC(=O)[C@H](CC(=O)O)NC(=O)[C@H](CCC(=O)O)NC(=O)[C@H](CCCNC(=N)N)NC(=O)[C@H](CCCNC(=N)N)NC(=O)[C@H](CCCNC(=N)N)NC(=O)[C@H](CCCNC(=N)N)NC(C)=O)C(=O)N[C@@H](CC(=O)O)C(=O)N[C@@H](Cc1c[nH]c2ccccc12)C(=O)N[C@@H](Cc1ccc(O)cc1)C(=O)N[C@@H](CC(=O)O)C(=O)N[C@@H](CO)C(=O)N[C@@H](CC(=O)O)C(=O)N[C@@H](CC(=O)O)C(=O)N[C@@H](CC(=O)O)C(N)=O
B7: RRRR(2Nala)… (peptide)
peptide: Ac-RRRR[2Nal]EDSDDYDDIDDDW-NH2
SMILES: CC[C@H](C)[C@H](NC(=O)[C@H](CC(=O)O)NC(=O)[C@H](CC(=O)O)NC(=O)[C@H](Cc1ccc(O)cc1)NC(=O)[C@H](CC(=O)O)NC(=O)[C@H](CC(=O)O)NC(=O)[C@H](CO)NC(=O)[C@H](CC(=O)O)NC(=O)[C@H](CCC(=O)O)NC(=O)[C@H](Cc1ccc2ccccc2c1)NC(=O)[C@H](CCCNC(=N)N)NC(=O)[C@H](CCCNC(=N)N)NC(=O)[C@H](CCCNC(=N)N)NC(=O)[C@H](CCCNC(=N)N)NC(C)=O)C(=O)N[C@@H](CC(=O)O)C(=O)N[C@@H](CC(=O)O)C(=O)N[C@@H](CC(=O)O)C(=O)N[C@@H](Cc1c[nH]c2ccccc12)C(N)=O

This note sets out measurements from patent US20260193293A1, “PEPTIDES CAPABLE OF INHIBITING PROTEIN-PROTEIN INTERACTIONS AT GABAB1A SUBUNIT AND USES THEREOF” (UNIVERSITY OF COPENHAGEN, priority 2022, published 2026).

Non-standard residues stand in square brackets, D forms with d. 2Nal = N[C@@H](Cc1ccc2ccccc2c1)C(=O)O; Sar = CNCC(=O)O

The target of the test is Sushi domains (SD1/2) protein of GABAB1a (GB1a). Description: FP competition vs TAMRA AJAP-1probe.
Sequence of Sushi domains (SD1/2) protein of GABAB1a (GB1a) (Q9Z0U4 29-158): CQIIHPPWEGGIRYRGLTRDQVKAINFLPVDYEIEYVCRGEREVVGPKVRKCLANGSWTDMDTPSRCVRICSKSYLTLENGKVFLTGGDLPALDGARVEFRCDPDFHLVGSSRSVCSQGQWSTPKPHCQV
Ac-RRRRREDDDWIDWGPTSDDD-NH2 gave a Ki of 32 nM. The value for Ac-EDDDWIDWGPTSDDD-NH2 [peptide 17] was 4 nM.

In the case of B1, the Ki worked out at 138 nM. For Ac-RRRREDDDWIDWYDSDDD-NH2 [4R-16] the value was 20.6 nM. In turn, Ac-RRRRRRRREDDDWIDWGPTSDDD-NH2 [R8-17] registered a Ki of 58.1 nM. With Ac-RRRRREDDDWIDWYDSDDD-NH2, the Ki stood at 39.5 nM.

In turn, Ac-EDDDWIDWGPTSDDDGGGGSRRRRRRRR-NH2 [17-FL-R8] showed a Ki of 147 nM. Consider Ac-EDDDWIDWGPTSDDDRRRRRRRR-NH2 [17-R8], for which the Ki worked out at 123 nM. The value for Ac-EDDSWIWWGPTGDED-NH2 [peptide 27] was 16 nM; that for Ac-RRRRRREDDDWIDWYDSDDD-NH2 was 70.9 nM. The value for Ac-EDDYIDWGPTSDDD-NH2 [peptide 19] was 3.8 nM; that for Ac-RRRRRRRRGGGGSEDDDWIDWGPTSDDD-NH2 [R8-FL-17] was 140 nM; that for B2 was 142 nM. The value for Ac-EDDSWIDWGPTGDED-NH2 [peptide 29] was 5.6 nM; that for Ac-RRRREDDDWIDWGPTSDDD-NH2 [4R-17] was 15 nM. For the molecule Ac-EDDDWIDWYDSDDDRRRRRRRR-NH2 [16-R8], the inhibition constant (Ki) is 65.3 nM.

Ac-RRRRRRREDDDWIDWYDSDDD-NH2 came in with a Ki of 89.1 nM. This Ki and that of the molecule before are within 1.5-fold of each other. Molecule B3 displayed a Ki of 201 nM. Against the preceding molecule, the Ki is about 2.3-fold higher. For B4 the value was 164 nM. As to Ac-RRRRRRRREDDDWIDWYDSDDD-NH2 [R8-16], the Ki came out at 107 nM. In the case of Ac-EDDYIDWYDSDDD-NH2 [peptide 18], the Ki was 4.6 nM.

The molecule Ac-EDDSWIDWYGADTD-NH2 [peptide 30] registered an inhibition constant (Ki) of 11 nM. This Ki is about 2.4-fold higher than that of the molecule before.

In the case of Ac-EDDDWIDWYDSDDDGGGGSRRRRRRRR-NH2 [16-FL-R8], the Ki turned out to be 118 nM.

Regarding Ac-RRRRRREDDDWIDWGPTSDDD-NH2, the Ki stood at 43.4 nM. Against the preceding molecule, the Ki is about 2.7-fold lower. For B5 the value was 13 nM. For Ac-EDDDWIDWYDSDDDEAAAKRRRRRRRR-NH2 [16-RL-R8] the value was 99.5 nM. The value for Ac-RRRRRRREDDDWIDWGPTSDDD-NH2 was 65 nM; that for Ac-RRRRRRRREAAAKEDDDWIDWGPTSDDD-NH2 [R8-RL-17] was 105 nM; that for Ac-EDDSWIWWYGADTD-NH2 [peptide 28] was 18 nM. Molecule Ac-RRREDDDWIDWGPTSDDD-NH2 [R3-17] had a Ki of 9 nM. The value for B6 was 15 nM; that for Ac-EDDDWIDWGPTSDDDEAAAKRRRRRRRR-NH2 [17-RL-R8] was 139 nM; that for Ac-RRREDDDWIDWYDSDDD-NH2 [R3-16] was 6.4 nM. Turning to Ac-RRRRRRRREAAAKEDDDWIDWYDSDDD-NH2 [R8-RL-16], the Ki amounted to 314 nM. The value for Ac-EDDDWIDWYDSDDD-NH2 [peptide 16] was 3.2 nM; that for Ac-RRRRRRRRGGGGSEDDDWIDWYDSDDD-NH2 [R8-FL-16] was 280 nM. The value for B7 was 143000 nM.
